This test addresses N-terminal domain of MDM2 (M6-N125) (UniProt Q00987 6-125). The experiment in a line: fluorescence polarisation. Background: In fluorescence polarisation assays a small probe gives low polarisation when free and higher when bound to something large.

We go through one molecule from PMC6277172 (Protein Engineering, Design and Selection, 2018).

N-terminal domain of MDM2 (M6-N125), sequence (Q00987 6-125): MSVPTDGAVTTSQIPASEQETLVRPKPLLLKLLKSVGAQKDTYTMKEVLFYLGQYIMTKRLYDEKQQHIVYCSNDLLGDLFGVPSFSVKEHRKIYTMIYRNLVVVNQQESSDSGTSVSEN

B1: FAM labeled 12-1 peptide (peptide)
peptide: {FAM}-RFMDYWEGL-NH2
In the case of B1, the binding result is given as “binds”.
